The values below come from patent publication US11371056B2, “HPPD variants and methods of use” (BASF Agricultural Solutions Seed US LLC, priority 2017, dated 2022).

Positions count from the first letter of the chain named.

One series has as its system soybean shoots. Put plainly: Soybean transformation, selection of shoots with tembotrione (greening or bleaching). As to conditions: wild-type soybean shoots treated with tembotrione. It counts as in vivo. An excerpt: Soybean transformation was achieved by using methods well known in the art, such as the one described using the Agrobacterium tumefaciens mediated transformation soybean half-seed explants using essentially the method described by Paz et al. (2006), Plant cell Rep. 25:206. Transformants were identified by using the HPPD inhibitor herbicide “tembotrione” as selection marker. The appearance of green shoots was observed, and documented as an indicator of tolerance to the HPPD inhibitor herbicide tembotrione.

Series [1] relates to soybean plants (transgenic T0 events, wild-type). Put plainly: Greenhouse spray test of T0 soybean events with Cmpd. 1, leaf area damage score. As to conditions: for leaf area damage score, 25th percentile / leaf area damage score, 75th percentile / leaf area damage score, 90th percentile / leaf area damage score, Median: T0 soybean events expressing the polypeptide; for leaf area damage score, 25th percentile / leaf area damage score, 75th percentile / leaf area damage score, 90th percentile / leaf area damage score, Median / leaf area damage score, Interquartile range: five days after application of Cmpd. 1 at 300 g AI/ha; for leaf area damage score, 75th percentile / leaf area damage score, 90th percentile / leaf area damage score, Median: scale 0 to 100; for leaf area damage score, Median: 50th percentile; for leaf area damage score, Interquartile range: difference between 75th and 25th percentile, T0 soybean events. Set-up: key to leaf area damage score, 25th percentile / leaf area damage score, Interquartile range: damage score 0 (no damage) to 100 (complete bleaching). The class given is in vivo. An excerpt: Tolerant green shoots were transferred to rooting media or grafted. Rooted plantlets were transferred to the greenhouse after an acclimation period. Plants containing the transgene were then sprayed with HPPD inhibitor herbicides, as for example with mesotrione at a rate of 300-600 g AI/ha, or with Cmpd. 1 (2-chloro-3-(methylsulfanyl)-N-(1-methyl-1H-tetrazol-5-yl)-4-(trifluoromethyl)benzamide) at a rate of 150 g-300 g AI/ha supplemented with ammonium sulfate and methyl ester rapeseed oil. Five to ten days after the application, the symptoms due to the application of the herbicide were evaluated and compared to the symptoms observed on wild-type plants under the same conditions.
For example, T0 soybean plants having a “plant expression cassette”, which includes an HPPD inhibitor tolerant HPPD polypeptide of the present invention, were tested towards the tolerance of Cmpd. 1.
Prior greenhouse trials with the transgenic plants, soybean transformants were routinely analyzed for the expression and presence of the transgenes using the ELISA protein detection method (see detailed description under item D and H). Only plants recovering in the selection media and having a detectable HPPD transgene protein expression were used for the herbicide tolerance analysis. A DeVries Tracker Sprayer was calibrated prior to each spraying. The chemical formulation used for Cmpd. 1 was supplemented with ammonium sulfate and methylated rape seed oil. Spray tests were conducted with a concentration, which equals to 300 grams AI per hectare (300 g AI/ha).
In greenhouse trials, independent T0 soybean events containing an exemplary mutant HPPD polypeptide were sprayed with the HPPD inhibitor herbicide Cmpd. 1 (2-chloro-3-(methylsulfanyl)-N-(1-methyl-1H-tetrazol-5-yl)-4-(trifluoromethyl)benzamide) at the rate of 300 grams AI/ha, supplemented with ammonium sulfate and methyl ester rapeseed oil. Five days after the application, the leaf damaged area due to the HPPD inhibitor herbicide is scored in a scale from 0 (no damage) to 100 (complete bleaching). Under those conditions, the wild-type plants were completely bleached and their damage scores were in the 95-100 range.
Table 5 presents the distribution of the HPPD inhibitor herbicide damage score data as percentile for exemplary mutant HPPD inhibitor herbicide tolerant polypeptides (SEQ ID NOs). The percentiles normalize ranks of the damage score from an individual plant in a population. […] The median is the 50th percentile. Half the values had higher damage scores; half had lower damage scores. The value of the 75th and 90th percentile is the damage score where 75% and 90% of the soybean events had lower damage scores, respectively. The difference between the 75th and 25th percentile is called the interquartile range and a marker to quantify scattering in the population. All constructs had only one single cassette insertion in the soybean genome.

For series [2], the system named is Pseudomonas fluorescens HPPD polypeptide (wild-type and mutants). Nature of the series: Coupled HPPD activity assay: turnover and residual turnover in crude HPPD polypeptide extracts with and without Cmpd. 1. It counts as biochemical. As to conditions: for Turnover: absence of Cmpd. 1; for Turnover / Residual turnover: changes in absorbance (OD) at 320 nm in the coupled assay, 30 min; for Residual turnover: presence of 100 μM Cmpd. 1; for Residual turnover [%]: 100 μM Cmpd. 1, normalised to turnover without inhibitor.

Setting [3] is: scale 0 (no damage) to 100 (complete bleaching).

As to `CS(=O)(=O)c1ccc(C(=O)C2C(=O)CCCC2=O)c(Cl)c1COCC(F)(F)F` [tembotrione, 2-[2-chloro-4-(methylsulfonyl)-3-[(2,2,2,-trifluoroethoxy)methyl]benzoyl]-1,3-cyclohexanedione], in the series with soybean shoots, the bleaching of shoots result is “entirely bleached”.

As to `CSc1c(C(F)(F)F)ccc(C(=O)Nc2nnnn2C)c1Cl` [Cmpd. 1, 2-chloro-3-(methylsulfanyl)-N-(1-methyl-1H-tetrazol-5-yl)-4-(trifluoromethyl)benzamide, reference compound], the damage scores in series [1] (wild-type soybean plants, Cmpd. 1 300 g AI/ha, five days after application, scale 0 (no damage) to 100 (complete bleaching)) is 95-100. In series [2], the Turnover was 0.236 and the Residual turnover was 0.042.

B1: SEQ ID NO:62: mutant HPPD polypeptide: 213K 215A 264L 268G 270E 315Q 335P 336D 337S 340V 344Q 345M (protein)
chain: MADLYENPMGLMGFEFIEFASPTPGTLEPIFEIMGFTKVATHRSKNVHLYRQGEINLILNNEPNSIASYFAAEHGPSVCGMAFRVKDSQKAYNRALELGAQPIHIDTGPMELNLPAIKGIGGAPLYLIDRFGEGSSIYDIDFVYLEGVERNPVGAGLKVIDHLTHNVYRGRMVYWANFYEKLFNFREARYFDIKGEYTGLTSKAMSAPDGMIKIALNEESSKGAGQIEEFLMQFNGEGIQHVAFLTDDLVKTWDALKKIGMRFLTAPGDEYYEMLEGRLPDHGEPVDQLQARGILLDGSSVEGDKRLLLQIFSEQLMGPVFFEFIQRKGDDGFGPDSFKVLFEQMERDQVRRGVLTAD
modifications: mutant HPPD polypeptide
notes: mutant HPPD polypeptide: 213K 215A 264L 268G 270E 315Q 335P 336D 337S 340V 344Q 345M
Turning to B1, in series [1] (setting [3]), the “leaf area damage score, 25th percentile” value came to 10.0. For the same molecule, in series [1], the “leaf area damage score, 75th percentile” value was found to be 25.0; the “leaf area damage score, 90th percentile” value turned out to be 35.0; the “leaf area damage score, Median” value is recorded as 15.0; the “leaf area damage score, Interquartile range” value is 15.0. Moreover, the “turnover and residual turnover, comparison in words” value in series [2] (100 μM Cmpd. 1, Table 3) is “increase significantly the turnover and the residual turnover”. Also, in series [2], the “Residual turnover [%]” value is reported as 79%, the Turnover is on record as 0.209 and the Residual turnover is 0.166.

B2: SEQ ID NO:68 (protein)
chain: B1 chain with M345I
modifications: mutant HPPD polypeptide
As for B2, in series [2], the “Residual turnover [%]” value turned out to be 74%, the Turnover was 0.182 and the Residual turnover came to 0.134.

B3: SEQ ID NO:69 (protein)
chain: B1 chain with A215P, L264M, Q344S, M345I
modifications: mutant HPPD polypeptide
In the case of B3, in series [2], the “Residual turnover [%]” value was found to be 40%, the Turnover is 0.173 and the Residual turnover is reported as 0.069.

B4: SEQ ID NO: 64 (protein)
chain: B1 chain with A215P, D336H, Q344S
modifications: mutant HPPD polypeptide
B4: the “leaf area damage score, 25th percentile” value in series [1] (setting [3]) was found to be 5.0. For the same molecule, in series [1], the “leaf area damage score, 75th percentile” value stood at 25.0; the “leaf area damage score, 90th percentile” value amounted to 38.0; the “leaf area damage score, Median” value is on record as 10.0; the “leaf area damage score, Interquartile range” value is on record as 20.0.

B5: SEQ ID NO: 23 (protein)
chain: B1 chain with K213R, A215P, L264M, D336H, Q344S, M345I
modifications: mutant HPPD polypeptide
As for B5, the “leaf area damage score, 25th percentile” value in series [1] (setting [3]) worked out at 10. Besides, in series [1], the “leaf area damage score, 75th percentile” value came to 22.5; the “leaf area damage score, 90th percentile” value was 55.0; the “leaf area damage score, Median” value turned out to be 10; the “leaf area damage score, Interquartile range” value was 12.5.

B6: SEQ ID NO: 45 (protein)
chain: B1 chain with A215P, L264M, Q315T, D336H, Q344S
modifications: mutant HPPD polypeptide
With B6, the “leaf area damage score, 25th percentile” value in series [1] (setting [3]) turned out to be 10.0. For the same molecule, in series [1], the “leaf area damage score, 75th percentile” value came to 25.0; the “leaf area damage score, 90th percentile” value is given as 35.0; the “leaf area damage score, Median” value is 15.0; the “leaf area damage score, Interquartile range” value was 15.0.

B7: SEQ ID NO:67 (protein)
chain: B1 chain with K213R, Q344S, M345V
modifications: mutant HPPD polypeptide
As for B7, in series [2], the “Residual turnover [%]” value was 90%, the Turnover was found to be 0.141 and the Residual turnover is reported as 0.127.

B8: SEQ ID NO: 43 (protein)
chain: B1 chain with A215P, L264M, Q315K, D336H, Q344S
modifications: mutant HPPD polypeptide
Regarding B8, the “leaf area damage score, 25th percentile” value in series [1] (setting [3]) came out at 10.0. Further, in series [1], the “leaf area damage score, 75th percentile” value is 25.0; the “leaf area damage score, 90th percentile” value was 35.0; the “leaf area damage score, Median” value was determined as 10.0; the “leaf area damage score, Interquartile range” value is 15.0.

B9: SEQ ID NO: 2 (protein)
chain: MADLYENPMGLMGFEFIEFASPTPGTLEPIFEIMGFTKVATHRSKNVHLYRQGEINLILNNEPNSIASYFAAEHGPSVCGMAFRVKDSQKAYNRALELGAQPIHIDTGPMELNLPAIKGIGGAPLYLIDRFGEGSSIYDIDFVYLEGVERNPVGAGLKVIDHLTHNVYRGRMVYWANFYEKLFNFREARYFDIKGEYTGLTSKAMSAPDGMIRIPLNEESSKGAGQIEEFLMQFNGEGIQHVAFLTDDLVKTWDALKKIGMRFMTAPPDTYYEMLEGRLPDHGEPVDQLQARGILLDGSSVEGDKRLLLQIFSETLMGPVFFEFIQRKGDDGFGPWNFAQLFESIERDQVRRGVLTAD
modifications: mutant HPPD polypeptide
For B9, the “leaf area damage score, 25th percentile” value in series [1] (setting [3]) is reported as 15.0. Moreover, in series [1], the “leaf area damage score, 75th percentile” value was 45.0; the “leaf area damage score, 90th percentile” value is recorded as 87.0; the “leaf area damage score, Median” value is recorded as 20.0; the “leaf area damage score, Interquartile range” value is listed as 30.0.
